Results reported in IntAct's records for PubMed 21102411.

B1: Peroxisomal biogenesis factor 19 (Homo sapiens), P40855 (parent)
chain: MAAAEEGCSVGAEADRELEELLESALDDFDKAKPSPAPPSTTTAPDASGPQKRSPGDTAKDALFASQEKFFQELFDSELASQATAEFEKAMKELAEEEPHLVEQFQKLSEAAGRVGSDMTSQQEFTSCLKETLSGLAKNATDLQNSSMSEEELTKAMEGLGMDEGDGEGNILPIMQSIMQNLLSKDVLYPSLKEITEKYPEWLQSHRESLPPEQFEKYQEQHSVMCKICEQFEAETPTDSETTQKARFEMVLDLMQQLQDLGHPPKELAGEMPPGLNFDLDALNLSGPPGASGEQCLIM
partner: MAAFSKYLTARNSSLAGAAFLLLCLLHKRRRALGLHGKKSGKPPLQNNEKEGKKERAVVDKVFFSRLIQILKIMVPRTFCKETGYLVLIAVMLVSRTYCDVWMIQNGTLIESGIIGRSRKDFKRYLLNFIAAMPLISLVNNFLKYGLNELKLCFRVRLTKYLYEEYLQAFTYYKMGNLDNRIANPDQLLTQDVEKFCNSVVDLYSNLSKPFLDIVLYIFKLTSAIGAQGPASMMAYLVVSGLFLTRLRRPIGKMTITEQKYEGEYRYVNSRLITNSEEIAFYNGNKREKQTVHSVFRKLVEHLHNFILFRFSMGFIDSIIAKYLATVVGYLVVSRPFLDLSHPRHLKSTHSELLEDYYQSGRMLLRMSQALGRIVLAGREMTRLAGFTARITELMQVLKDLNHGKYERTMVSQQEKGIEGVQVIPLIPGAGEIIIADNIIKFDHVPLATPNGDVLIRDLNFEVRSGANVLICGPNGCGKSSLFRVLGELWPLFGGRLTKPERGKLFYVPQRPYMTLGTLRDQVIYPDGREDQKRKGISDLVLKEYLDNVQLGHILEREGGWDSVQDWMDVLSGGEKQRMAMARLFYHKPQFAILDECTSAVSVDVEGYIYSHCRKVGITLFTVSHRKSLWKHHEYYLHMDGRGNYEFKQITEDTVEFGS
B2: Peroxisomal biogenesis factor 19 (Homo sapiens), P40855 (parent)
chain: B1 chain
partner: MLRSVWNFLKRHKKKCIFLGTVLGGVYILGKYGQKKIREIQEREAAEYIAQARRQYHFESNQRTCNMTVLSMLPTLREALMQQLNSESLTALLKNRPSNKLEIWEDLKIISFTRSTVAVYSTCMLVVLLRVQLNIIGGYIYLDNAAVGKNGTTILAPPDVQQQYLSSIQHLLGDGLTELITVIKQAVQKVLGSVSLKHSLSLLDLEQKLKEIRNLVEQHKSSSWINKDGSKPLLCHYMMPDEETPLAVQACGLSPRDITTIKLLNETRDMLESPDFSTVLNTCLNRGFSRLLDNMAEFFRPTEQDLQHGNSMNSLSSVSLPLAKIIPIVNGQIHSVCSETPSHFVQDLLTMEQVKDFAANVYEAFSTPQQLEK

Variants of: B1
Conditions: with abcd3_human ABCD3, P28288

Variant | effect of a mutation on the interaction
L22A | disrupting interaction

Variants of: B1
Conditions: with abcd3_human ABCD3, P28288
Remark: another data set of the same source

Variant | effect of a mutation on the interaction
F29A | disrupting interaction

Variants of: B2
Conditions: with pex3_human PEX3, P56589

Variant | effect of a mutation on the interaction
L18A | disrupting interaction

Variants of: B2
Conditions: with pex3_human PEX3, P56589
Remark: another data set of the same source

Variant | effect of a mutation on the interaction
L18A | decreasing interaction

Variants of: B2
Conditions: with pex3_human PEX3, P56589
Remark: another data set of the same source

Variant | effect of a mutation on the interaction
L22A | disrupting interaction

Variants of: B2
Conditions: with pex3_human PEX3, P56589
Remark: another data set of the same source

Variant | effect of a mutation on the interaction
D28A | decreasing interaction

Variants of: B2
Conditions: with pex3_human PEX3, P56589
Remark: another data set of the same source

Variant | effect of a mutation on the interaction
F29A | disrupting interaction

Variants of: B2
Conditions: with pex3_human PEX3, P56589
Remark: another data set of the same source

Variant | effect of a mutation on the interaction
L26A | decreasing interaction

Variants of: B2
Conditions: with pex3_human PEX3, P56589
Remark: another data set of the same source

Variant | effect of a mutation on the interaction
L21A | disrupting interaction

Variants of: B2
Conditions: with pex3_human PEX3, P56589
Remark: another data set of the same source

Variant | effect of a mutation on the interaction
L21A | decreasing interaction
